According to publication PMC12753876 (2025):

B1: CRY1^(PHR WT) in pGADT7 (AD) [Arabidopsis thaliana] / HsFA3^WT in pGBKT7 (BD) [Arabidopsis thaliana] (parent complex)
chain 1: MSGSVSGCGSGGCSIVWFRRDLRVEDNPALAAAVRAGPVIALFVWAPEEEGHYHPGRVSRWWLKNSLAQLDSSLRSLGTCLITKRSTDSVASLLDVVKSTGASQIFFNHLYDPLSLVRDHRAKDVLTAQGIAVRSFNADLLYEPWEVTDELGRPFSMFAAFWERCLSMPYDPESPLLPPKKIISGDVSKCVADPLVFEDDSEKGSNALLARAWSPGWSNGDKALTTFINGPLLEYSKNRRKADSATTSFLSPHLHFGEVSVRKVFHLVRIKQVAWANEGNEAGEESVNLFLKSIGLREYSRYISFNHPYSHERPLLGHLKFFPWAVDENYFKAWRQGRTGYPLVDAGMRELWATGWLHDRIRVVVSSFFVKVLQLPWRWGMKYFWDTLLDADLESDALGWQYITGTLPDSREFDRIDNPQFEGYKFDPNGEYVRRWLPELSRLPTDWIHHPWNAPESVLQAAGIELGSNYPLPIVGLDEAKARLHEALSQMWQLEAASRAAIENGSEE
chain 2: not shown

Variants of: B1
Test: yeast two-hybrid (beta-galactosidase, Miller units); n=3; parent: 280; read off a plot

Row | Variant | response [Miller Units]
1 | chain 1 R211A, chain 1 R435A | ~150

Variants of: B1
Test: as above
Remark: another data set of the same source

Row | Variant | response [Miller Units]
2 | chain 1 K332A, chain 1 R335A | ~300

Variants of: B1
Test: as above
Remark: another data set of the same source

Row | Variant | response [Miller Units]
3 | chain 1 K332E | ~210
4 | chain 1 K332E, chain 1 R335E | ~280
5 | chain 1 R335E | ~210
